Molecular target: wild-type ElDyP lacking the His6 tag (subtilisin A-treated, for crystallization) (Enterobacter lignolyticus)
Test: crystal structure

- stoichiometry N: 2
Substance: wild-type ElDyP lacking the His6 tag (subtilisin A-treated, for crystallization) (enzyme)
